We go through 1 substance from paper doi:10.1101/2024.11.01.621505.

The experiment addresses CCR9 ΔCT (human) (UniProt P51686).
Chain of UniProt P51686 (P51686 1-334, stated change not applied): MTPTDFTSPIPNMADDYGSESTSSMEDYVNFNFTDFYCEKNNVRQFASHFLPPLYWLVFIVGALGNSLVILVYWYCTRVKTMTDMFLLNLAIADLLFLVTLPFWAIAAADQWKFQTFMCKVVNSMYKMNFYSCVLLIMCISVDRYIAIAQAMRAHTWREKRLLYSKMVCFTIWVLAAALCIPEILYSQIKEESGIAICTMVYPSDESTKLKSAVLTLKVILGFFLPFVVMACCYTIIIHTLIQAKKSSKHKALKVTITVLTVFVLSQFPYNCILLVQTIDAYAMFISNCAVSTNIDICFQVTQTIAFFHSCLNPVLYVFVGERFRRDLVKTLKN

Consider “G⍺i-Nluc (from UniProt P63096 1-354) (natural protein)”, for which the Gi activation: area over the G⍺i-Gβγ dissociation curve (AOC), against CCR9 WT is 6 fold.
